Bridge positions count the residues as written; N and C are the ends.
What was measured:
[1] = target: T1, N-terminally biotinylated human PADI4 (bio-His-PADI4) (human, UniProt Q9UM07 1-663, G55S (read from the plasmid's DNA at D1:p46, codon AGC)); not stated by the …, biotin on the Avi-Tag (BirA)); assay: SPR; as a1 with 10 mM Ca2+ and 200 µM Cl-amidine (PADI4 active site covalently blocked with Cl-amidine); details: both partners purified
T1 construct: human PADI4, residues 1-663, cloned into p28BIOH-LIC; The COLDER assays used His-PADI4 from the same plasmid made without BirA (not biotinylated); also called Bio-hPADI4 wt; Avi-His-PADI4; source: E. coli BL21-DE3 co-expressing biotin ligase (BirA), purified (Ni-NTA, S200 size exclusion); not shown: Avi-Tag, N-terminal, kept; His6, N-terminal, kept
T1 sequence (Q9UM07 whole entry G55S/V82A/G112A, the tested form may be a part): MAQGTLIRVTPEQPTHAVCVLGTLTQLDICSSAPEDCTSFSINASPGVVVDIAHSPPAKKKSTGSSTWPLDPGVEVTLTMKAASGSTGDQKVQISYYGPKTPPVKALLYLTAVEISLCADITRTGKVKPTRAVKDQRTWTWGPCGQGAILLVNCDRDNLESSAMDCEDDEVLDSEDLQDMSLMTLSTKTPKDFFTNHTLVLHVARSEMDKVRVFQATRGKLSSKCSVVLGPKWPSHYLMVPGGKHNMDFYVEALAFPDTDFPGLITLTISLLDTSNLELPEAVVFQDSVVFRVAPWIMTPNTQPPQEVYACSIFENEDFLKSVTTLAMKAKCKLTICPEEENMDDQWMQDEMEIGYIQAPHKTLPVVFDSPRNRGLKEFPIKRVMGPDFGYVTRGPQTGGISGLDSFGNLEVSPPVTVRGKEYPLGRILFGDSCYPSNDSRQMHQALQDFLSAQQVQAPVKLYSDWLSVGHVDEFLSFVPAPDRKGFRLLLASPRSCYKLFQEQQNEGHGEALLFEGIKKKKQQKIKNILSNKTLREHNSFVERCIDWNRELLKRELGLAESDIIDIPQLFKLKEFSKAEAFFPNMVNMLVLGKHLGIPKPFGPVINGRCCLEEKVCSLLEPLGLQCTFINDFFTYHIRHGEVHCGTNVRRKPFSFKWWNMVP

[2] = target: T1, N-terminally biotinylated human PADI4 …; assay: SPR; single cycle kinetics, Biacore T200 or S200; Bio-His-PADI4 captured on a Biotin CAPture chip (~2000 RU), peptide as analyte; 25 °C; 50 mM HEPES pH 7.5, 150 mM NaCl, 2 mM DTT, 0.05% Tween-20, 0.1% DMSO, 10 mM Ca2+; 1:1 binding model; details: both partners purified
[3] = target: T2, N-terminally biotinylated recombinant human PADI4 (bio-His-PADI4) (human, UniProt Q9UM07 1-663, biotin on the N-terminal Avi-Tag (BirA)); assay: SPR; as a1 but 0 mM CaCl2 (calcium-free running buffer); Bio-His-PADI4 captured, peptide as analyte; 25 °C; 1:1 binding model; details: both partners purified
T2 construct: human peptidylarginine deiminase IV (PADI4), residues 1-663; (vector p28BIOH-LIC, Addgene plasmid 62352); also called Bio-hPADI4 wt; PADI4_WT; source: E. coli BL21-DE3 co-expressing biotin ligase (BirA), purified (Ni-NTA, S200 SEC); not shown: Avi-Tag (biotinylated), N-terminal, kept; His6, N-terminal, kept
T2 sequence (Q9UM07 whole entry, the tested form may be a part): as the sequence (Q9UM07 whole entry G55S/V82A/G112A, the tested form may be a part) above, with S55G, A82V, A112G counted along it

[4] = target: T3, bio-His-PADI4 with the active site covalently blocked by Cl-amidine (human, UniProt Q9UM07 1-663, biotin on the N-terminal Avi-Tag (BirA); active site covalently blocked with Cl-amidine (residue not stated)); assay: SPR; as a1 with 10 mM CaCl2 and the PADI4 active site blocked with Cl-amidine; Bio-His-PADI4 captured, peptide as analyte; 25 °C; 1:1 binding model; details: both partners purified
T3 construct: human peptidylarginine deiminase IV (PADI4), residues 1-663; Same protein as m1; also called 10 mM CaCl2 + Cl-amidine; source: E. coli BL21-DE3 co-expressing biotin ligase (BirA), purified (Ni-NTA, S200 SEC); treated with Cl-amidine; not shown: Avi-Tag (biotinylated), N-terminal, kept; His6, N-terminal, kept
T3 sequence (Q9UM07 whole entry, the tested form may be a part): as the sequence (Q9UM07 whole entry G55S/V82A/G112A, the tested form may be a part) above, with S55G, A82V, A112G counted along it

[5] = target: T2, N-terminally biotinylated recombinant …; assay: SPR; single cycle kinetics, Biacore T200 or S200; Bio-His-PADI4 captured on a Biotin CAPture chip (~2000 RU), peptide as analyte; 50 mM HEPES pH 7.5, 150 mM NaCl, 2 mM DTT, 0.05% Tween-20, 0.1% DMSO, 10 mM CaCl2; 25 °C; 1:1 binding model; details: both partners purified
[6] = target: T4, PADI4_D165A (human, UniProt Q9UM07 1-663, D165A); assay: cell-based or functional assay
T4 sequence (Q9UM07 whole entry D165A): as the sequence (Q9UM07 whole entry G55S/V82A/G112A, the tested form may be a part) above, with S55G, A82V, A112G, D165A counted along it

[7] = target: T5, PADI4_C166F (human, UniProt Q9UM07 1-663, C166F); assay: cell-based or functional assay
T5 sequence (Q9UM07 whole entry C166F): as the sequence (Q9UM07 whole entry G55S/V82A/G112A, the tested form may be a part) above, with S55G, A82V, A112G, C166F counted along it

[8] = target: T6, PADI4_E167A (human, UniProt Q9UM07 1-663, E167A); assay: cell-based or functional assay
T6 sequence (Q9UM07 whole entry E167A): as the sequence (Q9UM07 whole entry G55S/V82A/G112A, the tested form may be a part) above, with S55G, A82V, A112G, E167A counted along it

[9] = target: T7, PADI4_D168A (human, UniProt Q9UM07 1-663, D168A); assay: cell-based or functional assay
T7 sequence (Q9UM07 whole entry D168A): as the sequence (Q9UM07 whole entry G55S/V82A/G112A, the tested form may be a part) above, with S55G, A82V, A112G, D168A counted along it

[10] = target: T8, PADI4_R394A (human, UniProt Q9UM07 1-663, R394A); assay: cell-based or functional assay
T8 sequence (Q9UM07 whole entry R394A): as the sequence (Q9UM07 whole entry G55S/V82A/G112A, the tested form may be a part) above, with S55G, A82V, A112G, R394A counted along it

[11] = target: T4, PADI4_D165A; assay: SPR; single cycle kinetics; biotinylated PADI4 (wild type or single-residue variant) captured on a Biotin CAPture chip, peptide or peptide analogue as analyte; 50 mM HEPES pH 7.5, 150 mM NaCl, 2 mM DTT, 0.05% Tween-20, 0.1% DMSO; 25 °C; CaCl2 concentration not told for these runs; details: both partners purified
[12] = target: T5, PADI4_C166F; assay: as above; details: both partners purified
[13] = target: T6, PADI4_E167A; assay: as above; details: both partners purified
[14] = target: T7, PADI4_D168A; assay: as above; details: both partners purified
[15] = target: T9, PADI4_N373A (human, UniProt Q9UM07 1-663, N373A); assay: as above; details: both partners purified
T9 construct: human PADI4, residues 1-663, single substitution; source: E. coli BL21-DE3, purified (Ni-NTA, S200 SEC), as told for the wild type
T9 sequence (Q9UM07 whole entry N373A, the tested form may be a part): as the sequence (Q9UM07 whole entry G55S/V82A/G112A, the tested form may be a part) above, with S55G, A82V, A112G, N373A counted along it

[16] = target: T8, PADI4_R394A; assay: as above; details: both partners purified
[17] = target: His-tagged recombinant human PADI4 (His-PADI4) (human, UniProt Q9UM07 1-663); assay: cell-based or functional assay
Chain of His-tagged recombinant human PADI4 (His-PADI4) (Q9UM07 whole entry): as the sequence (Q9UM07 whole entry G55S/V82A/G112A, the tested form may be a part) above, with S55G, A82V, A112G counted along it

B1: PADI4_11 (peptide)
peptide: YESCRYRQVLQL
modifications: not fully specified; acetylated N-terminus (L-tyrosine 1) joined by a thioether bond to the side chain of Cys4 (cyclic); C-terminal amide
notes: cyclic peptide from RaPID selection 3; also called PAD4_11; source: synthetic peptide (Fmoc solid-phase synthesis, HPLC-purified)
- koff [1]: 0.1 s⁻¹
- kon [1]: 300000 M⁻¹ s⁻¹
- koff [2]: 0.1 s⁻¹
- kon [2]: 200000 M⁻¹ s⁻¹

B2: PADI4_5 (peptide)
peptide: YATPWLIVVLCG
modifications: not fully specified; D-tyrosine at position 1; cyclised via a thioether bond between the N-terminus (chloroacetylated) and the cysteine side chain (Cys11, from the letters); C-terminal amide
notes: cyclic peptide from RaPID selection 1 (10 mM CaCl2); source: synthetic peptide (Fmoc solid-phase synthesis, HPLC purified)
- Kd [3]: > 2000 nM
- Kd [4]: > 2000 nM
- Kd [5]: > 2000 nM

B3: PADI4_11 (peptide)
peptide: {CH2CO}-YESCRYRQVLQL-NH2
modifications: thioether N-4
notes: cyclic (lariat) peptide from RaPID selection 3 (10 mM CaCl2 + Cl-amidine); also called PAD4_11; source: synthetic peptide (Fmoc solid-phase synthesis, HPLC purified)
- ratio of K50(Ca2+) with DMSO to K50(Ca2+) with 30 µM PADI4_11 (COLDER assay) [6]: 1.5 fold
- ratio of K50(Ca2+) with DMSO to K50(Ca2+) with 30 µM PADI4_11 (COLDER assay) [7]: 0.9 fold
- ratio of K50(Ca2+) with DMSO to K50(Ca2+) with 30 µM PADI4_11 (COLDER assay) [8]: 2.7 fold
- ratio of K50(Ca2+) with DMSO to K50(Ca2+) with 30 µM PADI4_11 (COLDER assay) [9]: 2.9 fold
- ratio of K50(Ca2+) with DMSO to K50(Ca2+) with 30 µM PADI4_11 (COLDER assay) [10]: 1.1 fold
- Kd [11]: 3000 nM
- Kd [12]: > 10000 nM
- Kd [13]: 700 nM
- Kd [14]: 4000 nM
- Kd [15]: > 10000 nM
- Kd [16]: > 10000 nM

B4: PADI4_6 (peptide)
peptide: YLVLTIRLVLCG
modifications: not fully specified; D-tyrosine at position 1; cyclised via a thioether bond between the N-terminus (chloroacetylated) and the cysteine side chain (Cys11, from the letters); C-terminal amide
notes: as for B2
- Kd [3]: > 2000 nM
- Kd [4]: > 2000 nM
- Kd [5]: > 2000 nM

B5: PADI4_4 (peptide)
peptide: YHRLIVVIYVCG
modifications: not fully specified; D-tyrosine at position 1; cyclised via a thioether bond between the N-terminus (chloroacetylated) and the cysteine side chain (Cys11, from the letters); C-terminal amide
notes: as for B2
- Kd [3]: > 2000 nM
- Kd [4]: > 2000 nM
- Kd [5]: > 2000 nM

B6: PADI4_12 (peptide)
peptide: YEPCRFREILDL
modifications: not fully specified; acetylated N-terminus (L-tyrosine 1) joined by a thioether bond to the side chain of Cys4 (cyclic); C-terminal amide
notes: cyclic peptide from RaPID selection 3; also called PAD4_12; source: synthetic peptide (Fmoc solid-phase synthesis, HPLC-purified)
- koff [1]: 0.2 s⁻¹
- kon [1]: 300000 M⁻¹ s⁻¹
- Kd [2]: 679 nM
- koff [2]: 0.1 s⁻¹
- kon [2]: 200000 M⁻¹ s⁻¹

B7: PADI4_8 (peptide)
peptide: YTLWTVLVVICCG
modifications: not fully specified; D-tyrosine at position 1; cyclised via a thioether bond between the N-terminus (chloroacetylated) and the cysteine side chain (the cysteine marked C(S-), Cys11 from the letters); C-terminal amide
notes: cyclic peptide from RaPID selection 2 (0 mM CaCl2); source: synthetic peptide (Fmoc solid-phase synthesis, HPLC purified)
- Kd [3]: > 2000 nM
- Kd [4]: > 2000 nM
- Kd [5]: > 2000 nM

B8: PADI4_12 (peptide)
peptide: YEPCRFREILDL
modifications: not fully specified; L-tyrosine at position 1; cyclised via a thioether bond between the N-terminus (chloroacetylated) and the cysteine side chain (Cys4, from the letters); C-terminal amide
- fold reduction of the calcium requirement K50(Ca2+) of PADI4 activity by 30 µM peptide (COLDER assay) [17]: 4 fold
